This is an account of results in paper PMC10433997, “Highly Cross-Reactive and Protective Influenza A Virus H3N2 Hemagglutinin- and Neuraminidase-Specific Human Monoclonal Antibodies” (Microbiology Spectrum, 2023).

For test [1], the target named is recombinant hemagglutinin (HA) of A/Netherlands/219/03 H7N7 (Influenza A virus …, UniProt Q6VMK1, strain). Kind of test: ELISA. The conditions noted are these: both partners purified. In general terms: In an ELISA, binding on a coated surface is turned into a signal by an enzyme label.
In test [2] the target is T1, H3 hemagglutinin protein of A/Brisbane/10/2007 H3N2 (Influenza A virus A/Brisbane/10/2007 …, UniProt A8W8K8, strain). The experiment in a line: cell-based or functional assay.
The target in test [3] is T2, hemagglutinin (HA) of A/Switzerland/9715283/2013 H3N2 (Influenza A virus …, strain). The experiment in a line: cell-based or functional assay.
Test [4] addresses T1, H3 hemagglutinin protein of …. Kind of test: cell-based or functional assay. This is another data set of the same source.
For test [5], the target named is T2, hemagglutinin (HA) of …. Kind of test: cell-based or functional assay. The source holds these as a separate data set.
For test [6], the target named is T3, hemagglutinin (HA) of A/Hong Kong/1/1968 H3N2 (Influenza A virus A/Hong Kong/1/1968 …, UniProt Q91MA7).
T3 construct: source: MDCK cells infected with the virus (BEI Resources)
The experiment in a line: immunostaining of cells or tissue. The conditions noted are these: one partner purified.

B1: 1092E4 H3-specific human monoclonal antibody (antibody, V domains shown)
VH: QVQLVQSGAEVKKPGASVKVSCKASGYSFTRYGISWVRQAPGQGLEWMGWISAYTGNTDYAQKFQGRITMTTDTSTSTVYMELRSLRSDDTAVYYCARDHPQGVVILGSYYYGMDVWGQGNTVTVSS
VL: EIVLTQSPGTLSLSPGERATLSCRASQSVTSRYLAWYQQKLGQAPRLLIYGASSRATGIPDRFSGSGSGTDFTLTISSLEPEDFAVYYCQQSGSPRTFGQGTKVEIK
notes: also called H3 hMAb 1092E4; source: HEK293T, transfected; IgG captured and eluted from Magne protein A beads
As for B1, the binding result in test [1] and in test [6] was “binds” each time. Moreover, the “hemagglutination inhibition (HAI) IC50, virus A/Brisbane/10/2007 H3N2” value in test [2] came to 3.13 µg/mL. The “hemagglutination inhibition (HAI) IC50, virus A/Switzerland/9715293/2013 H3N2” value in test [3] was 50 µg/mL. Further, in test [4], the “microneutralization IC50, virus A/Brisbane/10/2007 H3N2” value was found to be 0.1 µg/mL. Moreover, the “microneutralization IC50, virus A/Switzerland/9715293/2013 H3N2” value in test [5] was found to be 6.25 µg/mL.

B2: 1092C4 H3-specific human monoclonal antibody (antibody, V domains shown)
VH: EVQLVQSGAEVKKPGASVKVSCKASGYSFTRYGISWVRQAPGQGLEWMGWISAYTGNTDYAQKFQGRITMTTDTSTSTAYMELRSLRSDDTAVYYCARDLPQGVVILGSYYYGMDVWGQGNTVTVSS
VL: EIVLTQSPGTLSLSPGERATLSCRASQSVTSRYLAWYQQKLGQAPRLLIYGASSRATGIPDRFSGSGSGTDFTLTISSLEPEDLAVYYCQQSGSPRTFGQGTKVEIK
notes: also called H3 hMAb 1092C4; source: HEK293T, transfected; IgG captured and eluted from Magne protein A beads
Regarding B2, the binding result in test [1] and in test [6] was “binds” throughout. In test [2], the “hemagglutination inhibition (HAI) IC50, virus A/Brisbane/10/2007 H3N2” value was below 0.05 µg/mL. The “hemagglutination inhibition (HAI) IC50, virus A/Switzerland/9715293/2013 H3N2” value in test [3] came out at 50 µg/mL. The “microneutralization IC50, virus A/Brisbane/10/2007 H3N2” value in test [4] came to 0.1 µg/mL. For the same molecule, the “microneutralization IC50, virus A/Switzerland/9715293/2013 H3N2” value in test [5] stood at 0.78 µg/mL.
